Results taken from article PMC11881899, “Structural insights into promoter-proximal pausing of RNA polymerase II at +1 nucleosome”.

Legend:
[1] = target: RNA polymerase II (RNAPII);DSIF (SPT4/SPT5) (Sus scrofa;human, UniProt A0A8D1DPV6;A0A4X1TVZ5;P19387;O15514;A0A4X1VTX4;P61218;P62487;P52434;P36954;P6287 …, |); assay: EMSA; 0.1 uM RNAPII, 0.4 uM DSIF; lower mobility than RNAPII-only EC; EMSA: 20 mM Hepes-NaOH pH 7.5, 5 mM MgCl2, 5% glycerol (buffer J); final 75 mM NaCl, 50 mM KOAc, 0.33 uM Zn(OAc)2, 4 uM ZnCl2; 30 min at 4 C; native 3-8% Tris-acetate PAGE; conditions: protein: native;recombinant; tags: none;N-His SPT4 (His tag TEV-cleaved); C-Strep SPT5; copies: 1;1;1;1;1;1;1;1;1;1;1;1;1;1; label: Alexa Fluor 647 on primer RNA; template DNA, nontemplate DNA and primer RNA
[2] = target: RNA polymerase II (RNAPII);DSIF (SPT4/SPT5);NELF wild type (NELF-A/B/C/E) (Sus scrofa;human;human, UniProt A0A8D1DPV6;A0A4X1TVZ5;P19387;O15514;A0A4X1VTX4;P61218;P62487;P52434;P36954;P6287 …, ||); assay: EMSA; 0.1 uM RNAPII, 0.4 uM DSIF, 0.4 uM NELF; complete shift; EMSA: 20 mM Hepes-NaOH pH 7.5, 5 mM MgCl2, 5% glycerol (buffer J); final 75 mM NaCl, 50 mM KOAc, 0.33 uM Zn(OAc)2, 4 uM ZnCl2; 30 min at 4 C; native 3-8% Tris-acetate PAGE; conditions: protein: native;recombinant;recombinant; tags: none;N-His SPT4 (His tag TEV-cleaved); C-Strep SPT5;NELF-C C-His6; NELF-E N-FLAG; copies: 1;1;1;1;1;1;1;1;1;1;1;1;1;1;1;1;1;1; label: Alexa Fluor 647 on primer RNA; template DNA, nontemplate DNA and primer RNA
[3] = target: RNA polymerase II (RNAPII);DSIF (SPT4/SPT5);NELF 3E mutant (Sus scrofa;human;human, UniProt A0A8D1DPV6;A0A4X1TVZ5;P19387;O15514;A0A4X1VTX4;P61218;P62487;P52434;P36954;P6287 …, ||K23E;K27E;K34E); assay: EMSA; 0.1 uM RNAPII, 0.4 uM DSIF, 0.4 uM NELF 3E; complex forms similar to wild type; EMSA: 20 mM Hepes-NaOH pH 7.5, 5 mM MgCl2, 5% glycerol (buffer J); final 75 mM NaCl, 50 mM KOAc, 0.33 uM Zn(OAc)2, 4 uM ZnCl2; 30 min at 4 C; native 3-8% Tris-acetate PAGE; conditions: protein: native;recombinant;recombinant; tags: none;N-His SPT4 (His tag TEV-cleaved); C-Strep SPT5;NELF-C C-His6; NELF-E N-FLAG; copies: 1;1;1;1;1;1;1;1;1;1;1;1;1;1;1;1;1;1; label: Alexa Fluor 647 on primer RNA; template DNA, nontemplate DNA and primer RNA
[4] = target: RNA polymerase II (RNAPII) (Sus scrofa); assay: EMSA; 0.1 uM RNAPII; RNAPII-only EC; EMSA: 20 mM Hepes-NaOH pH 7.5, 5 mM MgCl2, 5% glycerol (buffer J); final 75 mM NaCl, 50 mM KOAc, 0.33 uM Zn(OAc)2, 4 uM ZnCl2; 30 min at 4 C; native 3-8% Tris-acetate PAGE; conditions: protein: native; tags: none; copies: 1;1;1;1;1;1;1;1;1;1;1;1; label: Alexa Fluor 647 on primer RNA; template DNA, nontemplate DNA and primer RNA

Measured: binding result

B1: DNA/RNA scaffold (EMSA) (mixed)
RNA: UUUUUAUCGAGAGGUAC
DNA 1: CCAAGATGTCAACTCTACCGATAAGCAGACGTACCTCTCGAT
DNA 2: CTGCTTATCGGTAGAGTTGACATCTTGG
binds: [1] | [2] | [3] | [4]
